US20220380446A1 (ABL BIO, published 2022)
Positions count from the first letter of the chain named.

B1: chimeric 1E4 antibody (antibody, V domains shown)
VH: QVQLQQSGAELVRPGTSVKVSCKASGYAFTNYLIEWVKQRPGQGLEWIGVINPGSGGTNYNEKFKGKATLTADKSSSTAYMQLSSLTSDDSAVYFCASGNYDTYWGQGTLVTVSA
VL: DVVMTQTPLSLPVSLGDQASISCRSSQSLVHSNGNTYLHWYLQKPGQSPKLLIYKVSNRFSGVPDRFSGSGSGTDFTLKISRVEAEDLGVYFCSQSTHVPRTFGGGTKLEIK
notes: VH and VL of mouse 1E4 with human IgG1 and kappa constant regions; also called ch1E4; Ch1E4
B2: hu1E4(V9_VL4) (antibody, human IgG1, V domains shown)
VH: QVQLVQSGAEVKKPGASVKVSCKASGYTFTNYLIEWVRQAPGQGLEWIGVINPGSGGTNYNEKFKGRATLTADKSISTAYMELSRLRSDDTAVYYCASGNYDTYWGQGTLVTVSS
VL: B1 VL with T7S, S14T, D17Q, Q18P, L42Q, K44R, K50R, L88V, F92Y, L109V
notes: Monospecific; human IgG1 and kappa constant regions
B3: hu1E4(V8_VL4) (antibody, human IgG1, V domains shown)
VH: B2 VH with I48M, A68V, L70M
VL: B1 VL with T7S, S14T, D17Q, Q18P, L42Q, K44R, K50R, L88V, F92Y, L109V
notes: as for B2
B4: hu1E4(V1_VL1) (antibody, human IgG1, V domains shown)
VH: B2 VH with I48M, A68V, L70M, A72R, K74T
VL: B1 VL with V2I, P12S, S14T, L15P, D17Q, Q18P, K50Q, L88V, F92Y, G105Q
notes: Monospecific; fused to human IgG1 and kappa constant regions; also called humanized 1E4(V1_VL1); hu1E4(Ver.1_VL1)
B5: hu1E4(V3_VL2) x Grabody B (bispecific antibody, human IgG1, kappa)
heavy 1: not shown
heavy 2: not shown
light: DVVMTQTPLSLSVTPGQPASISCRSSQSLVHSNGNTYLHWYLQKPGQSPQLLIYKVSNRFSGVPDRFSGSGSGTDFTLKISRVEAEDVGVYYCSQSTHVPRTFGQGTKLEIKRTVAAPSVFIFPPSDEQLKSGTASVVCLLNNFYPREAKVQWKVDNALQSGNSQESVTEQDSKDSTYSLSSTLTLSKADYEKHKVYACEVTHQGLSSPVTKSFNRGEC
notes: also called hu1E4(V3 VL2) × Grabody B
B6: hu1E4(V5_VL4) x Grabody B (bispecific antibody, human IgG1, kappa)
heavy 1: not shown
heavy 2: not shown
light: B5 light with T7S, S12P, P15L, L42Q, K44R, Q50R, Q105G, L109V
notes: also called hu1E4(V5 VL4) × Grabody B
B7: hu1E4(V7_VL2) x Grabody B (bispecific antibody, human IgG1, kappa)
heavy 1: not shown
heavy 2: not shown
light: B5 light
notes: also called hu1E4(V7 VL2) × Grabody B
B8: hu1E4(V5_VL5) x Grabody B (bispecific antibody, human IgG1, kappa)
heavy 1: not shown
heavy 2: not shown
light: B5 light with T7S, S12P, P15L, L42Q, K44R, Q50R, Y92F, Q105G, L109V
notes: also called hu1E4(V5 VL5) × Grabody B
B9: hu1E4(V2_VL2) (antibody, human IgG1, V domains shown)
VH: B2 VH with R67K, A68V
VL: B1 VL with P12S, S14T, L15P, D17Q, Q18P, K50Q, L88V, F92Y, G105Q
notes: as for B2
B10: hu1E4(V7_VL2) (antibody, human IgG1, V domains shown)
VH: B2 VH with T28A, R38K, I48M, R67K
VL: B1 VL with P12S, S14T, L15P, D17Q, Q18P, K50Q, L88V, F92Y, G105Q
notes: as for B2
B11: hu1E4(V3_VL2) (antibody, human IgG1, V domains shown)
VH: B2 VH with T28A, R38K, R67K, A68V
VL: B1 VL with P12S, S14T, L15P, D17Q, Q18P, K50Q, L88V, F92Y, G105Q
notes: as for B2
B12: hu1E4(V5_VL3) x Grabody B (bispecific antibody, human IgG1, kappa)
heavy 1: not shown
heavy 2: not shown
light: B5 light with T7S, S12P, P15L, Y41F, L42Q, K44R, Q50R, L51R, Q105G, L109V
notes: also called hu1E4(V5 VL3) × Grabody B
B13: hu1E4(V6_VL3) x Grabody B (bispecific antibody, human IgG1, kappa)
heavy 1: not shown
heavy 2: not shown
light: B5 light with T7S, S12P, P15L, Y41F, L42Q, K44R, Q50R, L51R, Q105G, L109V
notes: also called hu1E4(V6 VL3) × Grabody B
B14: hu1E4(V2_VL2) x Grabody B (bispecific antibody, human IgG1, kappa)
heavy 1: not shown
heavy 2: not shown
light: B5 light
notes: also called hu1E4(V2 VL2) × Grabody B
B15: recombinant mouse 1E4 (antibody, V domains shown)
VH: B1 VH
VL: B1 VL
notes: also called rm1E4
B16: mouse hybridoma 1E4 (antibody, V domains shown)
VH: B1 VH
VL: B1 VL
notes: Mouse 1E4 made by the hybridoma; also called hy1E4; mouse 1E4 antibody

The binders below were run against T1, human α-synuclein pre-formed fibrils (Human Alpha Synuclein Pre-formed Fibrils Type II, StressMarq SPR-317) (human, UniProt P37840 1-140) (assay: SPR Biacore T200, antibody captured on Protein A chip, α-syn PFF analyte, 1:1 model).
Method: (§1) The equipment used was Biacore® (GE Healthcare, Model T200). Protein A (GE Healthcare, Cat: 29-1275-56) was used as a chip, 10 mM glycine-HCl pH 1.5 (GE Healthcare, Cat: BR-1003-54) was used as a regeneration buffer, and HBS-EP was used as a running buffer and an analyte dilution and sample dilution buffer. […] A capture phase was carried out at a contact time of 60 seconds and a flow rate of 30 μL/min was used for a stabilization period of 60 seconds, with the target resonance units (RU) of fibril set to 10 (theoretical). In an association phase, the association time was set to 60 seconds and a flow rate was set to 60 μL/min. In a dissociation phase, the dissociation time was set to 180 seconds, and a flow rate was set to 60 μL/min. In a regeneration phase, the flow rate was set to 30 μL/min, and the regeneration time was set to 60 seconds. A 1:1 binding model was used for fitting, and the Biacore® T200 Evaluation software (GE Healthcare) was used for the evaluation.

| Kd | koff | kon | Binder |
| --- | --- | --- | --- |
| 0.0519 nM | 0.00054 s⁻¹ | 1.04e+07 M⁻¹ s⁻¹ | B1 |
| 0.096 nM | 0.00137 s⁻¹ | 1.42e+07 M⁻¹ s⁻¹ | B2 |
| 0.051 nM | 0.000854 s⁻¹ | 1.68e+07 M⁻¹ s⁻¹ | B3 |
| 0.0276 nM | 0.000439 s⁻¹ | 1.59e+07 M⁻¹ s⁻¹ | B4 |

Each binder was assayed against T1, human α-synuclein pre-formed fibrils … (assay: sandwich ELISA, antibody coated, α-syn PFF added, 7B7-biotin detection).
Method: (§2) Specifically, the antibodies were diluted with PBS by six-fold serial dilution from 400 nM to 0.009 nM. The diluted antibodies were added to a 96-well plate at 100 μL/well for coating. The plate was sealed and incubated at 4° C. for 16 hours. After washing with phosphate-buffered saline with Tween® (PBS-T; 0.05% Tween® 20) five times, the plate was blocked with 5% BSA in PBS 200 μL/well at 37° C. for 2 hours. After washing with PBS-T five times, α-syn PFF (2 μg/mL, 100 μL/well in 2% BSA in PBS) was added to the plate and incubated at 37° C. for 2 hours. After washing with PBS-T five times, 7B7-biotin antibody (anti-α-syn antibody; 1 μg/mL/100 μL/well, in 2% BSA in PBS) was added and incubated at 37° C. for 2 hours. After washing with PBS-T five times, the plate was incubated with horseradish peroxidase (HRP)-bound streptavidin in PBS with 2% BSA (1:5000, 1 mg/mL stock, 20 ng/well, 100 μL/well) at 37° C. for 1 hour. After washing with PBS-T five times, 3,3′,5,5′-tetramethylbenzidine (TMB) (100 μL/well) was added and incubated at room temperature for 5 minutes. The reaction was stopped by the addition of 0.5 N H₂SO₄ (50 μL/well). Optical absorbance at 450 nm was measured by using a plate reader, with absorbance at 650 nm subtracted from the reading.

| EC50 | Binder |
| --- | --- |
| 0.209 nM | B1 |
| 0.114 nM | B2 |
| 0.139 nM | B3 |

Molecular target: T1, human α-synuclein pre-formed fibrils …
Assay: SPR Biacore T200, antibody captured on Protein A chip, α-syn PFF analyte, 1:1 model
Remark: another data set of the same source
Method: as §1

| Kd | koff | kon | Binder |
| --- | --- | --- | --- |
| 0.0519 nM | 0.00054 s⁻¹ | 1.04e+07 M⁻¹ s⁻¹ | B1 |
| 0.0982 nM | 0.000992 s⁻¹ | 1.01e+07 M⁻¹ s⁻¹ | B5 |
| 0.167 nM | 0.0016 s⁻¹ | 9.96e+06 M⁻¹ s⁻¹ | B6 |
| 0.143 nM | 0.0015 s⁻¹ | 1.05e+07 M⁻¹ s⁻¹ | B7 |
| 0.059 nM | 0.00067 s⁻¹ | 1.14e+07 M⁻¹ s⁻¹ | B8 |

Molecular target: T1, human α-synuclein pre-formed fibrils …
Assay: sandwich ELISA, antibody coated, α-syn PFF added, 7B7-biotin detection
Remark: another data set of the same source
Method: as §2

| EC50 | Binder |
| --- | --- |
| 0.876 nM | B1 |
| 0.57 nM | B9 |
| 0.339 nM | B10 |
| 0.577 nM | B11 |
| 0.619 nM | B4 |

These binders were tested against T1, human α-synuclein pre-formed fibrils … (assay: cell-based or functional assay).

| phagocytosis of α-syn PFF by BV-2 cells (gMFI, FACS) | Binder |
| --- | --- |
| 2 fold against ch9E4 | B1 |

Molecular target: T1, human α-synuclein pre-formed fibrils …
Assay: sandwich ELISA, antibody coated, α-syn PFF added, 7B7-biotin detection
Remark: another data set of the same source
Method: as §2

| EC50 | Binder |
| --- | --- |
| 0.484 nM | B1 |
| 0.284 nM | B6 |
| 1.1 nM | B12 |
| 0.215 nM | B8 |
| 1.12 nM | B13 |

Molecular target: T1, human α-synuclein pre-formed fibrils …
Assay: as above
Remark: another data set of the same source
Method: as §2

| EC50 | Binder |
| --- | --- |
| 0.554 nM | B1 |
| 0.285 nM | B5 |
| 0.418 nM | B7 |
| 0.364 nM | B14 |

Molecular target: T1, human α-synuclein pre-formed fibrils …
Assay: as above
Remark: another data set of the same source
Method: as §2

| EC50 | Binder |
| --- | --- |
| 1.61 nM | B1 |
| 2.59 nM | B15 |
| 1.1 nM | B4 |

What follows are binders tested against human α-synuclein oligomers (Dopamine HCL Stabilized Human Recombinant Alpha Synuclein Oligomers, StressMarq … (human, UniProt P37840 1-140)) (assay: sandwich ELISA, antibody coated, oligomeric α-syn added, 7B7-biotin detection).
Method: Human α-syn oligomers from StressMarq (Dopamine HCL Stabilized Human Recombinant Alpha Synuclein Oligomers, SPR-466) was used as the oligomeric α-syn in the assay.
In this sandwich ELISA, test antibodies were diluted with PBS by five-fold serial dilution from 80 nM to 0.005 nM. The serially diluted antibodies were added to a 96-well plate at 100 μL/well for coating. The plate was sealed and incubated at 4° C. for 16 hours. After washing with PBS-T five times, the plate was blocked with 5% BSA in PBS 200 μL/well at 37° C. for 2 hours. After washing with PBS-T five times, oligomeric α-syn (2 μg/mL, 100 μL/well in 2% BSA in PBS) was added and incubated at 37° C. for 2 hours. After washing with PBS-T five times, 7B7-biotin antibody (1 μg/mL, 100 μL/well, in 2% BSA in PBS) were added and incubated at 37° C. for 2 hours. After washing with PBS-T five times, the plate was incubated with Streptavidin-HRP in 2% BSA in PBS (1:5000, 1 mg/mL stock, 20 ng/well, 100 μL/well) at 37° C. for 1 hour. After washing with PBS-T five times, TMB (100 μL/well) was added and incubated at RT for 5 minutes. The reaction was stopped by the addition of 0.5 N H₂SO₄ (50 μL/well).

| EC50 | Saturation point | Binder |
| --- | --- | --- |
| 6.56 nM | 3.17 | B16 |
| 3.46 nM | 3.16 | B4 |

Molecular target: T1, human α-synuclein pre-formed fibrils …
Assay: SPR Biacore T200, antibody captured on Protein A chip, α-syn PFF analyte, 1:1 model
Remark: another data set of the same source
Method: as §1

| Kd | koff | kon | Binder |
| --- | --- | --- | --- |
| 0.0302 nM | 0.000415 s⁻¹ | 1.38e+07 M⁻¹ s⁻¹ | B4 |
